T cell proliferation (3H-thymidine uptake) of PBMC in the presence of irradiated SKMel63 cells data for one substance are collected here from patent publication US20050244416A1.

The experiment concerns the target melanoma-associated proteoglycan expressed on M21 and SKMel63 melanoma cells (UniProt Q6UVK1). Put plainly: cell-based or functional assay.
UniProt Q6UVK1, sequence (Q6UVK1 30-2322 limits assumed): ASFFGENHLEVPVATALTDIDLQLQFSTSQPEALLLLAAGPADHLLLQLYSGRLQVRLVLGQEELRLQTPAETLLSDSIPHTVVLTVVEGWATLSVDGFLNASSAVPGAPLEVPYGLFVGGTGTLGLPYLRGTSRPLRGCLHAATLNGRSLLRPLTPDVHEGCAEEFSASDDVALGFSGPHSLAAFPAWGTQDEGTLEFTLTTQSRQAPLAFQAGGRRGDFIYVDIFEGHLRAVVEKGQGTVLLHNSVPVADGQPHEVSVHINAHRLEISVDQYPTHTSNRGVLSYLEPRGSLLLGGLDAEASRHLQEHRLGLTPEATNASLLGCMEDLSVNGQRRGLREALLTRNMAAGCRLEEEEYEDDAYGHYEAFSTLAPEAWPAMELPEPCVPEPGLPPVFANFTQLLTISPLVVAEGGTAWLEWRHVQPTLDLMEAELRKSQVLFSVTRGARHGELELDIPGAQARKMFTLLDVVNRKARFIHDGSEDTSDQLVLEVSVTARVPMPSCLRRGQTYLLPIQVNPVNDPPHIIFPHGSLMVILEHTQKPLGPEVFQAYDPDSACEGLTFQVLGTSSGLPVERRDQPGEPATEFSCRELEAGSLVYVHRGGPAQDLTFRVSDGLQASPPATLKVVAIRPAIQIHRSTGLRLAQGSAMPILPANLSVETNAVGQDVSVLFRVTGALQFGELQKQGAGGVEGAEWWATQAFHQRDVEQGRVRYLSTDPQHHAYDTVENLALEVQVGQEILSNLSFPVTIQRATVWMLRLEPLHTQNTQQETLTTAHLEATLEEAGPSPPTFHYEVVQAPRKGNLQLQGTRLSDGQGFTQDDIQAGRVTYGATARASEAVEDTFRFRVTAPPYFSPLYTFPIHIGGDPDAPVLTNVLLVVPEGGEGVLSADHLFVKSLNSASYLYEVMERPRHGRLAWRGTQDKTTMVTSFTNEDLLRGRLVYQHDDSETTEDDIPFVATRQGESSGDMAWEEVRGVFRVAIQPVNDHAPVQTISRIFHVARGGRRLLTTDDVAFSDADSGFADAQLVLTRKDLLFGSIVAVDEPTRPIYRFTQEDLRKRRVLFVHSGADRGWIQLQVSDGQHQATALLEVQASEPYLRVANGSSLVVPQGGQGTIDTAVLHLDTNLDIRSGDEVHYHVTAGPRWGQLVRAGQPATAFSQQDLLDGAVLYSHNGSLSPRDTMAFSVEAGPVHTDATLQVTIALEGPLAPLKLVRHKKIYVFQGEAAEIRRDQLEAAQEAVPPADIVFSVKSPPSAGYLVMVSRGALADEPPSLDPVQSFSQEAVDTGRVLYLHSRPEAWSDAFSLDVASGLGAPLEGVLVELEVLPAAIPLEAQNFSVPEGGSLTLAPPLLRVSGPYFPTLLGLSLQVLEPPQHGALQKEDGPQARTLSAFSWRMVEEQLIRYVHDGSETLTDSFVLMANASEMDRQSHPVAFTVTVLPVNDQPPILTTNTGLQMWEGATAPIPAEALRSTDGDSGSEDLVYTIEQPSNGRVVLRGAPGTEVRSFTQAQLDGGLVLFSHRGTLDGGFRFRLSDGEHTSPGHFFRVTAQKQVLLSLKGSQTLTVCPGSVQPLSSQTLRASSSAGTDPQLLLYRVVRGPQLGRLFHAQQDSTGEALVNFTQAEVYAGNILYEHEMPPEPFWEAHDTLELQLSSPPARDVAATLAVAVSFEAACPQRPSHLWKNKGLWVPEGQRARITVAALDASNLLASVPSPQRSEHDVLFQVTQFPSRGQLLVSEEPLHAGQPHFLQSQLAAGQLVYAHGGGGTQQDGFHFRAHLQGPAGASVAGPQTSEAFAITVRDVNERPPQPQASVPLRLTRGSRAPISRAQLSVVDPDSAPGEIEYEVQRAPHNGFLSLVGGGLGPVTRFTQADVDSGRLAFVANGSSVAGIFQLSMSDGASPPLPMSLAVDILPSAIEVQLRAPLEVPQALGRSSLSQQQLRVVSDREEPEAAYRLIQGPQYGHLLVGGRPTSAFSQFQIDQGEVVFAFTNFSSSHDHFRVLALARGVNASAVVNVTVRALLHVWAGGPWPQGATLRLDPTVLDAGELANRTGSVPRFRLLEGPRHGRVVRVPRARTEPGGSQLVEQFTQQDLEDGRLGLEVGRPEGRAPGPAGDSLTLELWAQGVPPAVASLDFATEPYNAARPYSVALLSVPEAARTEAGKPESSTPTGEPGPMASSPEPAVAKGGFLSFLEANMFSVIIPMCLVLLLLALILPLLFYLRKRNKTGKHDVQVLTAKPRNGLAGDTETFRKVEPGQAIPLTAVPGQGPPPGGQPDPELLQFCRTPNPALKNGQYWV

For the substance “chemically hybridized bispecific F(ab')2 fragment with melanoma (9.2.27) and CD28 (9.3) specificity (cM28) (bispecific antibody)”, the T cell proliferation (3H-thymidine uptake) of PBMC in the presence of irradiated SKMel63 cells is over 300 ng/mL.
